Data taken from patent publication US20200317768A1 (published 2020).
Numbering of substitutions follows the chain as printed. Each block holds one binder with its values, some of them ahead of it.

Assays:
[1] = target: T1, soluble mouse FcγRII, His-tagged (mouse, UniProt P08101 30-210, limits assumed); experiment: SPR, mouse FcgRII-His captured, antigen-antibody complex injected, pH7.4, 25C
T1 construct: Captured on the chip by an anti-His antibody
T1 sequence (looked up): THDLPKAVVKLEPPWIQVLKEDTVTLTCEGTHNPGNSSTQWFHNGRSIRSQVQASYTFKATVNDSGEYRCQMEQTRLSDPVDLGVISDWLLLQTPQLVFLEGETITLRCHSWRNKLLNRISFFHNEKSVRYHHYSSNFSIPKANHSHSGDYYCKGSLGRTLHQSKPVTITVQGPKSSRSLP

[2] = target: T2, human FcγRIIaR extracellular domain with C-terminal His-tag (human, UniProt P12318 34-217); experiment: SPR (BIACORE), antibody captured, FcgR analyte
T2 construct: also called human FcgRIIaR; FcγRIIa (type R)
T2 chain: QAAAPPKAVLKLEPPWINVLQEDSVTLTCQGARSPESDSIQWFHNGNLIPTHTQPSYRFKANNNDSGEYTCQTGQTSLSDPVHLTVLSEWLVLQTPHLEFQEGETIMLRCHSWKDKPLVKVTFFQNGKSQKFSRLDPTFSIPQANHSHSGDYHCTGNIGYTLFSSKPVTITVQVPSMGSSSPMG

[3] = target: T3, human FcγRIIb extracellular domain with C-terminal His-tag (human, UniProt P31994 43-217); experiment: SPR (BIACORE), antibody captured, FcgR analyte
T3 construct: also called human FcgRIIb
T3 sequence: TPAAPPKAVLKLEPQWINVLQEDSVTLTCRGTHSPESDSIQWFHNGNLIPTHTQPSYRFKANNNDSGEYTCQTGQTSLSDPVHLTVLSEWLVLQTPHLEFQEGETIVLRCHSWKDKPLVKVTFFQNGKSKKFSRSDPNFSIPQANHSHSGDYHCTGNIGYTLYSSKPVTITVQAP

[4] = target: T4, cynomolgus monkey FcγRIIa2 extracellular domain with C-terminal His-tag (cynomolgus monkey); experiment: SPR (BIACORE), antibody captured, FcgR analyte
T4 construct: also called cyno FcgRIIa2; cynoFcγRIIa2
T4 chain: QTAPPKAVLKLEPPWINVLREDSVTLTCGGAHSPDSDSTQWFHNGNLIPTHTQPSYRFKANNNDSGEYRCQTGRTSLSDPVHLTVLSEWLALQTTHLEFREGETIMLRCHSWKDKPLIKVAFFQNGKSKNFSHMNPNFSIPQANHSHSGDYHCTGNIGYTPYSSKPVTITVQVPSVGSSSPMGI

[5] = target: T5, cynomolgus monkey FcγRIIa3 extracellular domain with C-terminal His-tag (cynomolgus monkey); experiment: SPR (BIACORE), antibody captured, FcgR analyte
T5 construct: also called cyno FcgRIIa3; cynoFcγRIIa3
T5 chain: T4 chain with K127I, N130K, H133P, Q142R

[6] = target: T6, human FcγRIIIaV extracellular domain with C-terminal His-tag (human, UniProt P08637 17-208); experiment: SPR (BIACORE), antibody captured, FcgR analyte
T6 construct: also called human FcgRIIIaV
T6 sequence (P08637 17-208 F176V): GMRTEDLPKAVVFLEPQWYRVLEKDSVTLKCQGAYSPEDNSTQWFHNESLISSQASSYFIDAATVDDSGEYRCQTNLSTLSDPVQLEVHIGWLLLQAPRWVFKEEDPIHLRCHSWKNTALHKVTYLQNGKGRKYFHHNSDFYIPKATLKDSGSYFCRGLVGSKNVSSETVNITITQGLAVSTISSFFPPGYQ

[7] = target: T7, cynomolgus monkey FcγRIIa1 extracellular domain with C-terminal His-tag (cynomolgus monkey); experiment: SPR (BIACORE), antibody captured, FcgR analyte
T7 construct: also called cyno FcgRIIa1; cynoFcγRIIa1
T7 chain: T4 chain with T95P, A121T, K127I, S128A, N130K, N135D, Q142R

biacore IC binding [1]: 1 relative to SG1 (=1.00)
B1: MS1032LO06-SG1 (M103205H795-SG1/M103202L889-SK1) (antibody, human IgG1, kappa)
heavy: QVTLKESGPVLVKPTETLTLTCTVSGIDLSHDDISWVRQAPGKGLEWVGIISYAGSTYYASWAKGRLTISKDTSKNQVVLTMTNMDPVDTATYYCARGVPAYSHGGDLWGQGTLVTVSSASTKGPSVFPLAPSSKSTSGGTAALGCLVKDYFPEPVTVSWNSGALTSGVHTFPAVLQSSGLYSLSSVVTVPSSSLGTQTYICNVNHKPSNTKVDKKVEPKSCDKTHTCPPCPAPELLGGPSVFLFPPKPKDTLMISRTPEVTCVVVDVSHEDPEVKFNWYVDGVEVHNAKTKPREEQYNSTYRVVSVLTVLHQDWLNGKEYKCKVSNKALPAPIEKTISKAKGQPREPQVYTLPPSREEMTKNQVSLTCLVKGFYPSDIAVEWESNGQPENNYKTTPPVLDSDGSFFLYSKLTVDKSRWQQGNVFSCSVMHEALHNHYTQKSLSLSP
light: DIVMTQSPATLSLSPGERATLSCTSSQSVYHANWLSWFQQKPGQPPKLLIYWASTLAYGVPSRFSGSGSGTDFTLTISSLQPEDAATYYCAGGYGGGRYAFGQGTKVEIKRTVAAPSVFIFPPSDEQLKSGTASVVCLLNNFYPREAKVQWKVDNALQSGNSQESVTEQDSKDSTYSLSSTLTLSKADYEKHKVYACEVTHQGLSSPVTKSFNRGEC
notes: Anti-latent myostatin antibody

Kd [2]: 1.1 µM | Kd [3]: 4.6 µM | Kd [4]: 5.1 µM | Kd [5]: 17 µM | Kd [6]: 0.81 µM | Kd [7]: 3.2 µM
B2: MS_M103205H795-SG1/M103202L889-SK1 (antibody, human IgG1, kappa)
heavy: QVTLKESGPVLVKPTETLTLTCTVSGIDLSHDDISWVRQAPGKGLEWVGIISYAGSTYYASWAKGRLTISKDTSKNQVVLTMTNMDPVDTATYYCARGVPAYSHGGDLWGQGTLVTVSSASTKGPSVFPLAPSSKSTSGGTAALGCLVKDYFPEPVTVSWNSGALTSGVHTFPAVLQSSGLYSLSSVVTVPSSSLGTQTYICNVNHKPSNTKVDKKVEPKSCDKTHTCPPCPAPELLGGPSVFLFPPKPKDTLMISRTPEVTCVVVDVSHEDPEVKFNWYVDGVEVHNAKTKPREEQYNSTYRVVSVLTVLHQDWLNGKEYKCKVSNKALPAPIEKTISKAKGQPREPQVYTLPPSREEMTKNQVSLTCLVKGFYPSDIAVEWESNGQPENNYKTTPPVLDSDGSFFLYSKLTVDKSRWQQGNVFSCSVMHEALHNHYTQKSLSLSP
light: B1 light
notes: Parent antibody of the Fc variants; also called MS1032LO06-SG1
